*1 amine or outer side, *2 acyl side, *3 side chain or, on linkers, in order; H or OH if unused. Bridges are numbered along the chain shown (N, C = ends). Primed or numbered codes have the meaning given here. [ ]: non-standard residue; d: D form. The star is where a group is joined. TATA = O=C(CC[*:1])N1CN(C(=O)CC[*:2])CN(C(=O)CC[*:3])C1; NOTA = O=C(O)CN1CCN(CC(=O)O)CCN(CC(=O)*)CC1; Hyp = O=C(O)[C@@H]1C[C@@H](O)CN1; hArg = N=C(N)NCCCC[C@H](N)C(=O)O; PEG2′ = not defined here; Sar = CNCC(=O)O
Legend:
His-tagged human EphA2 = His-tagged human EphA2 (human, UniProt P29317 24-537); assay: SPR
His-tagged mouse EphA2 = biological target: T1, His-tagged mouse EphA2 (mouse, UniProt Q03145 26-538); assay: SPR
T1 chain: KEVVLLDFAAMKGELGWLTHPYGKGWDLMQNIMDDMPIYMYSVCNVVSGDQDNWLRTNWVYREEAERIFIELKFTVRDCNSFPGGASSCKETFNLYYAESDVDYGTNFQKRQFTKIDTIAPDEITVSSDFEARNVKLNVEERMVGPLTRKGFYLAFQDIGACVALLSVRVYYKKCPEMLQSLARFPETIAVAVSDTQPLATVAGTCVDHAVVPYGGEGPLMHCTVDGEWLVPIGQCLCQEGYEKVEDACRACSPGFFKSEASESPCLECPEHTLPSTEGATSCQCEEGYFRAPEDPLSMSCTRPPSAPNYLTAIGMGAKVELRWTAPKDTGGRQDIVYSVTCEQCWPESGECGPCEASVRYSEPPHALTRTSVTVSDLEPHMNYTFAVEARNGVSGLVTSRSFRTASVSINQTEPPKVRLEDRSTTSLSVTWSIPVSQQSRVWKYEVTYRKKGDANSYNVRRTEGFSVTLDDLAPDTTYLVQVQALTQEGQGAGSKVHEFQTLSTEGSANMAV

His-tagged human EphA2, sequence (P29317 24-537): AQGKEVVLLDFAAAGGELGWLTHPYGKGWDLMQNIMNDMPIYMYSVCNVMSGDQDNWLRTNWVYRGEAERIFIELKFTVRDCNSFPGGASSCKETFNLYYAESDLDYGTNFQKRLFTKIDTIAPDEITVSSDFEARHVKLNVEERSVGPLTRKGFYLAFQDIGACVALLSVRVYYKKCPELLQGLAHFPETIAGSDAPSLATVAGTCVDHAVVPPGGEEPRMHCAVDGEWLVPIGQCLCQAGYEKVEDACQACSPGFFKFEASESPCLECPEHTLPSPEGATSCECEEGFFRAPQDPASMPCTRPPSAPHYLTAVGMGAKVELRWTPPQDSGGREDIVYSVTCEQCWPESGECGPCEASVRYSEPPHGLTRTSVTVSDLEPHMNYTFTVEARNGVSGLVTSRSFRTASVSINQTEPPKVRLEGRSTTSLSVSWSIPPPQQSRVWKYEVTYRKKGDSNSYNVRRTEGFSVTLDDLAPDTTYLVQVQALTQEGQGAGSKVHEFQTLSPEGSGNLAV

koff (His-tagged human EphA2): 0.00133 s⁻¹ | koff (His-tagged mouse EphA2): 0.00301 s⁻¹
B1: AJ201 (peptide)
peptide: {NOTA-PEG2′}-GR[Sar][Sar][Sar]GA[hArg]DC[Hyp]LVNPLCLHP[dD]W[hArg]C-NH2
modifications: linker 10-17-24 via TATA; not fully specified; also: hydroxyproline, place not given here
